Tests used:
Test in all cases: FRET or BRET; stopped-flow FRET; Cy5 labeled OmpC mutant in 8 M urea mixed 1:20 with Cy3 labeled Skp mutant; both 0.03 µM final; 50 mM PBS pH 7.0, 100 mM NaCl, 0.01% Tween 20, 25°C; Cy5 emission, fitted to three exponentials
Details in all cases: both partners purified
[1] = target: T1, Skp-K55C-Cy3 (Escherichia coli, UniProt P0AEU7 21-161, K55C, Cy3 (Cy3-maleimide) on the introduced cysteine at 55)
T1 construct: Skp of Escherichia coli, each monomer 141 residues as printed; Extent of labeling greater than 90%; one dye on each of the three chains of the trimer; also called Cy3 labeled Skp mutant K55C; Skp-Cy3; source: E. coli BL21 (DE3), purified (Ni-NTA), labeled with Cy3-maleimide
T1 sequence (looked up): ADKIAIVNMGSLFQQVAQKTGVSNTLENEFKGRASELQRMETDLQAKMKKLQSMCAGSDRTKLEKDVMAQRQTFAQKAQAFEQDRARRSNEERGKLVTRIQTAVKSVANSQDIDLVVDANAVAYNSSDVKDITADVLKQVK

[2] = target: T2, Skp-E82C-Cy3 (Escherichia coli, UniProt P0AEU7 21-161, E82C, Cy3 (Cy3-maleimide) on the introduced cysteine at 82)
T2 construct: Skp of Escherichia coli, each monomer 141 residues as printed; Extent of labeling greater than 90%; one dye on each of the three chains of the trimer; also called Cy3 labeled Skp mutant E82C; Skp-Cy3; source: E. coli BL21 (DE3), purified (Ni-NTA), labeled with Cy3-maleimide
T2 sequence (looked up): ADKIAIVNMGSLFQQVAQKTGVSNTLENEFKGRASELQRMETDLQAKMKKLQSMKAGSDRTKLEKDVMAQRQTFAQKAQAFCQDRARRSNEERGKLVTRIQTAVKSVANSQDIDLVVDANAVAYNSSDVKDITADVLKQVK

[3] = target: T3, Skp-D128C-Cy3 (Escherichia coli, UniProt P0AEU7 21-161, D128C, Cy3 (Cy3-maleimide) on the introduced cysteine at 128)
T3 construct: Skp of Escherichia coli, each monomer 141 residues as printed; Extent of labeling greater than 90%; one dye on each of the three chains of the trimer; also called Cy3 labeled Skp mutant D128C; Skp-Cy3; source: E. coli BL21 (DE3), purified (Ni-NTA), labeled with Cy3-maleimide
T3 sequence (looked up): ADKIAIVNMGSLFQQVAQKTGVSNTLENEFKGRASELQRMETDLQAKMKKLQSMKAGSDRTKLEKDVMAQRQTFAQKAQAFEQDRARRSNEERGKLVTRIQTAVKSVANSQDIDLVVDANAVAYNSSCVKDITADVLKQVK

B1: OmpC-D25C-Cy5 (natural protein, Escherichia coli, UniProt P06996 22-367, looked up)
chain: AEVYNKDGNKLDLYGKVDGLHYFSCNKDVDGDQTYMRLGFKGETQVTDQLTGYGQWEYQIQGNSAENENNSWTRVAFAGLKFQDVGSFDYGRNYGVVYDVTSWTDVLPEFGGDTYGSDNFMQQRGNGFATYRNTDFFGLVDGLNFAVQYQGKNGNPSGEGFTSGVTNNGRDALRQNGDGVGGSITYDYEGFGIGGAISSSKRTDAQNTAAYIGNGDRAETYTGGLKYDANNIYLAAQYTQTYNATRVGSLGWANKAQNFEAVAQYQFDFGLRPSLAYLQSKGKNLGRGYDDEDILKYVDVGATYYFNKNMSTYVDYKINLLDDNQFTRDAGINTDNIVALGLVYQF
modifications: Cy5 (Cy5-maleimide) on the introduced cysteine at 25
notes: Outer membrane protein OmpC of Escherichia coli; 346 residues as printed; Extent of labeling greater than 90%; also called Cy5 labeled OmpC mutant D25C; source: E. coli BL21 (DE3), purified (Ni-NTA) in 8 M urea, unfolded, labeled with Cy5-maleimide
For B1, the “time constant τ1 of the fast phase” value [1] was 73 ± 5.1 ms, the “time constant τ1 of the fast phase” value [2] was 101 ± 6.9 ms and the “time constant τ1 of the fast phase” value [3] was 143 ± 10 ms.

From PMC3458824, “Direct Observation of the Uptake of Outer Membrane Proteins by the Periplasmic Chaperone Skp” (PLoS ONE, 2012)
